Measurements published in US20230056252A1 (Gilead, published 2023).

Target: T1, biotinylated CD3 epsilon:delta heterodimer protein (Amsbio AMS.CDD-H52WO) (Homo sapiens (Human), UniProt P07766 23-126; P04234 22-105)
T1 construct: also called CD3 heterodimer
Assay: BLI (Octet), CD3 on SA sensor, Fab analyte;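 note: biolayer interferometry with biotinylated CD3 epsilon:delta captured on streptavidin sensors, Fab analyte at several concentrations up to 300 nM, 100 s association then 300 s dissociation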
Experimental: The CD3 binding kinetics of the purified huSP34 Fabs were determined using OctetRed384 (Pall ForteBio, CA) biolayer interferometry (BLI). […] Streptavidin (SA) coated biosensors tips (Pall ForteBio, CA) were used to capture biotinylated CD3 epsilon: delta heterodimer and typical immobilization levels captured on the SA sensors were 1 nm which approximately translates to 300 ng/ml of captured protein. For kinetic measurements biosensors were first pre-wetted with assay buffer for 10 minutes to remove protective sucrose coating followed by the recommended regeneration conditions for standardization of the biosensor surface for the experiment. In order to load the biosensors with antigen, 300 ng/ml of biotinylated CD3 epsilon: delta heterodimer protein (Amsbio AMS.CDD-H52WO) was immobilized on the SA sensor for 900 seconds. The CD3 loaded biosensors were then blocked with 20 ug/ml biocytin (sigma) for 200 seconds and then dipped into assay buffer containing wells for 200 seconds to remove any non-specific protein or unbound CD3 heterodimer.
CD3 loaded and biocytin blocked biosensors were then transferred into fresh assay buffer for 200 seconds to collect a baseline read. Kinetic measurements for anti-CD3 Fab and bispecific antibody binding were performed by dipping the CD3-coated biosensors into wells containing multiple concentrations of Fab or Ab (0-300 nM) for 100 seconds followed by a 300 second dissociation time by transferring the biosensors into assay buffer containing wells. The CD3 loaded sensors were then regenerated for the next kinetic measurement. Biosensors were generated by removing bound Fabs or Ab from immobilized CD3 on SA biosensors. Regeneration conditions used consisted of 3 cycles of 5 seconds of dipping the biosensors in Regeneration Buffer (10 mM Glycine HCl pH 1.5) followed by Assay Buffer (10 mM sodium phosphate pH 7.4, 140 mM Sodium Chloride, 0.005% Tween20 with 0.2% BSA).

Binder | Kd | koff | kon
mSP34 Fab-HF (Fab, V domains shown, also called mSP34 chimeric Fab; mSP34 human chimeric Fab) VH: EVKLLESGGGLVQPKGSLKLSCAASGFTFNTYAMNWVRQAPGKGLEWVARIRSKYNNYATYYADSVKDRFTISRDDSQSILYLQMNNLKTEDTAMYYCVRHGNFGNSYVSWFAYWGQGTLVTVSA VL: QAVVTQESALTTSPGETVTLTCRSSTGAVTTSNYANWVQEKPDHLFTGLIGGTNKRAPGVPARFSGSLIGDKAALTITGAQTEDEAIYFCALWYSNLWVFGGGTKLTVLG | 9.6 nM | 0.0025 s⁻¹ | 262000 M⁻¹ s⁻¹
huSP34.2.1 Fab-HF (Fab, V domains shown, also called HC2+LC1) VH: EVQLVESGGGLVQPGGSLRLSCAASGFTFSTYAMNWVRQAPGKGLEWVGRIRSKYNNYATYYAASVKGRFTISRDDSKNSLYLQMNSLKTEDTAMYYCVRHGNFGNSYVSWFAVWGQGTLVTVSS VL: QAVVTQEPSLTVSPGGTVTLTCRSSTGAVTTSNYANWVQQKPGQAPRGLIGGTNKRAPWTPARFSGSLIGDKAALTLSGAQPEDEAEYYCALWYSNLWVFGGGTKLTVL | 24.6 nM | 0.00596 s⁻¹ | 246000 M⁻¹ s⁻¹
huSP34.2.2 Fab-HF (Fab, V domains shown, also called HC2+LC2) VH: EVQLVESGGGLVQPGGSLRLSCAASGFTFSTYAMNWVRQAPGKGLEWVGRIRSKYNNYATYYAASVKGRFTISRDDSKNSLYLQMNSLKTEDTAMYYCVRHGNFGNSYVSWFAVWGQGTLVTVSS VL: QAVVTQEPSLTVSPGGTVTLTCGSSTGAVTTSNYANWVQQKPGQAPRGLIGGTSNRAPWTPARFSGSLLGGKAALTLSGAQPEDEAEYYCALWYSNLWVFGGGTKLTVL | 26.4 nM | 0.0141 s⁻¹ | 609000 M⁻¹ s⁻¹
huSP34.2.4 Fab-HF (Fab, V domains shown, also called HC2+LC4) VH: EVQLVESGGGLVQPGGSLRLSCAASGFTFSTYAMNWVRQAPGKGLEWVGRIRSKYNNYATYYAASVKGRFTISRDDSKNSLYLQMNSLKTEDTAMYYCVRHGNFGNSYVSWFAVWGQGTLVTVSS VL: QAVVTQEPSLTVSPGGTVTLTCGSSTGAVTTSHYANWVQQKPGQAPRGLIGGTSKRAPWTPARFSGSLLGGKAALTLSGAQPEDEAEYYCALWYSALWVFGGGTKLTVL | 99.4 nM | 0.0335 s⁻¹ | 398000 M⁻¹ s⁻¹
huSP34.2.5 Fab-HF (Fab, V domains shown, also called HC2+LC5) VH: EVQLVESGGGLVQPGGSLRLSCAASGFTFSTYAMNWVRQAPGKGLEWVGRIRSKYNNYATYYAASVKGRFTISRDDSKNSLYLQMNSLKTEDTAMYYCVRHGNFGNSYVSWFAVWGQGTLVTVSS VL: QAVVTQEPSLTVSPGGTVTLTCGSSTGAVTTGHYANWVQQKPGQAPRGLIGGTSNRAPWTPARFSGSLLGGKAALTLSGAQPEDEAEYYCALWYSARWVFGGGTKLTVL | 162 nM | 0.0408 s⁻¹ | 251000 M⁻¹ s⁻¹
huSP34.2.6 Fab-HF (Fab, V domains shown, also called HC2+LC6) VH: EVQLVESGGGLVQPGGSLRLSCAASGFTFSTYAMNWVRQAPGKGLEWVGRIRSKYNNYATYYAASVKGRFTISRDDSKNSLYLQMNSLKTEDTAMYYCVRHGNFGNSYVSWFAVWGQGTLVTVSS VL: QAVVTQPPSLTVSPGGTVTLTCGSSTGAVTTGHYANWVQQKPGQAPRGLIGGTSNRAPGVPARFSGSLSGGKAALTISGAQPEDEAEYYCALWYSARWVFGGGTKLTVL | 30.6 nM | 0.0107 s⁻¹ | 351000 M⁻¹ s⁻¹
huSP34.3.1 Fab-HF (Fab, V domains shown, also called HC3+LC1) VH: EVQLVESGGGLVQPGGSLRLSCAASGFTFNTYAMNWVRQAPGKGLEWVGRIRSKYNNYATYYADSVKGRFTISRDDSKNSLYLQMNSLRTEDTAVYYCVRHGNFGHSYVSWFAYWGQGTLVTVSS VL: QAVVTQEPSLTVSPGGTVTLTCRSSTGAVTTSNYANWVQQKPGQAPRGLIGGTNKRAPWTPARFSGSLIGDKAALTLSGAQPEDEAEYYCALWYSNLWVFGGGTKLTVL | 14.7 nM | 0.00366 s⁻¹ | 252000 M⁻¹ s⁻¹
huSP34.3.2 Fab-HF (Fab, V domains shown, also called HC3+LC2) VH: EVQLVESGGGLVQPGGSLRLSCAASGFTFNTYAMNWVRQAPGKGLEWVGRIRSKYNNYATYYADSVKGRFTISRDDSKNSLYLQMNSLRTEDTAVYYCVRHGNFGHSYVSWFAYWGQGTLVTVSS VL: QAVVTQEPSLTVSPGGTVTLTCGSSTGAVTTSNYANWVQQKPGQAPRGLIGGTSNRAPWTPARFSGSLLGGKAALTLSGAQPEDEAEYYCALWYSNLWVFGGGTKLTVL | 25.4 nM | 0.00952 s⁻¹ | 381000 M⁻¹ s⁻¹
